Experimental data taken from US20240254227A1 (Alector, published 2024).

T1: murine CD300LB on wild type mouse bone marrow macrophages (mouse, UniProt Q3U497 18-209)
T1 construct: Endogenous receptor on primary cells; also called mCD300LB; Wt BMM
T1 sequence: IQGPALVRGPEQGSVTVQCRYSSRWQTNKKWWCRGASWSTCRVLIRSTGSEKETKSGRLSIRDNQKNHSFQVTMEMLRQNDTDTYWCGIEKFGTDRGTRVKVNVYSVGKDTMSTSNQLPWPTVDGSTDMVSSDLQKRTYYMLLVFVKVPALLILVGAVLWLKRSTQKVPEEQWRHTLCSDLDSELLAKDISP

T2: murine CD300F stably expressed on Jurkat cells (mouse, UniProt Q6SJQ7 20-337)
T2 construct: also called muCD300F
T2 sequence: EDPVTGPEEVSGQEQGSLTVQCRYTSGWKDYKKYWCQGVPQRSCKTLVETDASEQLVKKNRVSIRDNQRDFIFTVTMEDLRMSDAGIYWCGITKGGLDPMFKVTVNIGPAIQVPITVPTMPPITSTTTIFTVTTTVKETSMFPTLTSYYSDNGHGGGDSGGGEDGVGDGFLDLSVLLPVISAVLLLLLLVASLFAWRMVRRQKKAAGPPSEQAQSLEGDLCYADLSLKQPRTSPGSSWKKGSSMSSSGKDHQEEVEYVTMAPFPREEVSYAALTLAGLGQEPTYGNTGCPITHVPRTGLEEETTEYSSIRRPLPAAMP

T3: human CD300LB on primary human macrophages (human, UniProt A8K4G0 18-201)
T3 sequence: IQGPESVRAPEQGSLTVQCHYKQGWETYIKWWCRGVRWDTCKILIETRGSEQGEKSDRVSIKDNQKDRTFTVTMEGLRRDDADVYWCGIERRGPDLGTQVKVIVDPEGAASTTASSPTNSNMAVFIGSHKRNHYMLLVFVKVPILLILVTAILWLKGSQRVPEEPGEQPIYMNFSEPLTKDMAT

T4: human CD300LB on primary human monocytes (human, UniProt A8K4G0 18-201)
T4 construct: Endogenous protein on primary cells; that the target is CD300LB is inferred from the antibodies being anti-CD300LB antibodies; also called Monocyte donor 1281; Monocyte donor 1282
T4 sequence: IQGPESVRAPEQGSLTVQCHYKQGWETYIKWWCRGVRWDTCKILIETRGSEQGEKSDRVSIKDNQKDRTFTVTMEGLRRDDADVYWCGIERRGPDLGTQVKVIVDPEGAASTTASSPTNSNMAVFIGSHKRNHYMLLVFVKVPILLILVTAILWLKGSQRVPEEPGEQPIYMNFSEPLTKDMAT


Experiments:
[1] = target: T1, murine CD300LB on wild type mouse bone …; test: flow cytometry, wild type mouse bone marrow macrophages, 10 ug/mL, isotype subtracted
Method: To further examine the specificity of the anti-CD300LB antibodies to muCD300LB, bone marrow macrophages (BMM) from wild type (WT) and CD300LB knockout mice (KO) were analyzed for antibody binding by flow cytometry. Bone marrow from these mice was harvested and plated into three 20 cm PETRI dishes in complete media containing 50 ng/mL murine M-CSF (Peprotech). Media was changed every three days until day 6, when cells were harvested. Cells were detached with PBS 3 mM EDTA, washed and counted and plated at 100,000 cells/well in a 96 well plate. Cells were incubated with murine Fc block (Clone 2.4G2, BD) then with 10 μg/mL anti-CD300LB antibodies for 30 minutes on ice. […] Cells were washed twice more with 150 μL FACS buffer then resuspended to 100 μL in FACS buffer analyzed using a BD Canto II flow cytometer to calculate the geometric MFI minus the gMFI of the isotype control. Dead cells were stained with live/dead staining kit (Invitrogen).

[2] = target: T2, murine CD300F stably expressed on …; test: flow cytometry, stable Jurkat cells, 10 ug/mL, isotype subtracted
Method: Purified anti-CD300LB antibodies of the present disclosure were analyzed for cross-reactivity to other murine CD300 family members stably expressed in Jurkat cells (generation of which is described above). Cells were counted and labeled with 200 nM CFSE, 500 nM VioBlue, or a combination of the two to discriminate between muCD300LB, Parental cells, CD300F, and the other CD300 family members. Cells were washed thoroughly with PBS containing 2% fetal bovine serum then resuspended at a total of 240,000 cells per well. Purified antibodies at 10 μg/mL were added and incubated for one hour before the cells were washed twice again and stained with an APC-labeled anti-mouse secondary. Cells were then analyzed using a BD FACSCanto II. Antibodies were analyzed for specific binding to muCD300LB by FlowJo software by gating on live cells, then the APC gMFI calculated for each labeled population by subtracting the gMFI of the isotype control. The gMFI results of the analysis are presented below in Table 4.

[3] = target: T3, human CD300LB on primary human …; test: flow cytometry, primary human macrophages donor 1277, 10 ug/mL antibody, isotype control subtracted
Method: (§1) Human monocytes from various donors were isolated from whole blood using RosetteSep Human Monocyte Enrichment Cocktail (Stemcell technologies) and Ficoll centrifugation per manufacturer protocols. After lysing red blood cells with ACK lysing buffer, monocytes were resuspended in complete media (RPMI, 10% FBS, Pen/Strep, L-glutamine, HEPES, non-essential amino acid, Sodium pyruvate). To obtain macrophages from these isolated monocytes, 100 ng/ml human M-CSF and 8% v/v human serum were added to the cells for 5-7 days. Cells were counted on the day of the experiment and plated at 100,000 cells per well in a round-bottom 96 well plate. Cells were incubated with TruStain Fc block and 10 μg/mL antibody for 1 hour on ice before washing with 250 μL ice cold PBS twice. Cells were then incubated with the appropriate APC-conjugated secondary antibodies for 20 minutes in the dark on ice. Finally, cells were washed twice with ice cold FACS buffer and then resuspended in 100 μL FACS buffer containing 1% propidium iodide. Samples were immediately analyzed using a BD FACSCanto flow cytometer. The gMFI was calculated using FlowJo software minus the gMFI of the appropriate isotype control.

[4] = target: T3, human CD300LB on primary human …; test: flow cytometry, primary human macrophages donor 1275, 10 ug/mL antibody, isotype control subtracted
Method: as §1

[5] = target: T4, human CD300LB on primary human monocytes; test: flow cytometry, primary human monocytes donor 1284, 10 ug/mL antibody, isotype control subtracted
Method: as §1

Binder | gMFI [1] [gMFI] | gMFI [2] [gMFI] | gMFI [3] [gMFI] | gMFI [4] [gMFI] | gMFI [5] [gMFI]
anti-CD300LB antibody CD-11 (antibody, V domains shown) VH: QIQLVQSGPEVKKPGETVKISCKASGYTLTDYSMHWVMQTPGTGLKWMAWMNTETGEPTYADDFKGRFAFSLETSAGTAYLQIDNLKNEDTATYFCATYGKSYGMKYWGQGTSVTVSS VL: DIVLTQSPPSLAVSLGQRATISCRATKSVSPYLHWYQQTPGQPPKLLIYLASNLDSGVPARFSGSGSGTDFTLNIHPVEEEDAATYYCQHNKELPPTFGGGTRLEIK | 349 | 2.35 |  |  | 
anti-CD300LB antibody CD-12 (antibody, V domains shown) VH: QIQLVQSGPELKKPGETVKISCKASGYTFTDYSMHWVRQAPGKGLKWMAWINTETGEATHADDFKGRFDFSLDTSASTAYLQIKNLKNEDTGIYFCVCYGSSYGMDYWGQGTSVTVSS VL: DIVLTQSPASLPVSLGQRATISCRASKSVRTSGASYMHWYQQKPGQPPKLLIYLASNLKSGVPTRFSGSGSGTDFTLNIHPVEEEDAATYYCQHNREVPPTFGGGTKLEIK | 413 | 2.1 |  |  | 
anti-CD300LB antibody CD-15 (antibody, V domains shown) VH: QIQLVQSGPELKKPGETVKISCQVSGYTFTDYSMHWLKQAPGKGLKWMAWINTETGESTYTDEFKGRFVFSLETSVRTAYLKINNLKNEDTATYFCGTYGSSYGMAYWGQGTSVTVSS VL: DIVLTQSPASLPVSLGQRATISCRASKSVSTSGSSYLHWYQQKPGQPPKLLIYLASKLESGVPARFRGSGSGTDFTLNIHPVEEEDAATYYCQHNREVPPTFGGGTKLEIK | 256 | 1.85 |  |  | 
anti-CD300LB antibody CD-16 (antibody, V domains shown) VH: QIQLVQSGPELKKPGETVKISCKASGYTFTDYSMHWVKQAPGKGLKWMAWINTETGEPTYADDFRGRFAFSLETSGRTAYLEINNLRNEDTATYFCVTYGSSYGMAYWGQGTSVTVSS VL: DIVLTQSPASLAVSLGQRATISCRASKSVSRSGYSYLHWYQQKPGQPPKLLIYLASKLESGVPARFSGSGSGTDFTLNIHPVEAEDAATYYCQHNREIPPTFGGGTKLEIK | 233 |  |  |  | 
anti-CD300LB antibody CD-17 (antibody, V domains shown) VH: QIQLVQSGPELKKPGETVKISCKASGYTLTDYSMHWVKQAPGKGLKWMGWINTETGEPRYGDDFKGRFAFSLETSASSAYLQINNLKNDDTATYFCATYGRSYGMDFWGQGTSVTVSS VL: DIVLTQSPASLAVSLGQRATISCRASKSVSPSGHSYMHWYQQKPGQPPKLLIYLASNLKSGVPARFSGSGSGTDFTLNIHPVEEGDAATYYCQHNRELPPTFGGGSKLEIK | 1230 | 1.7 |  |  | 
anti-CD300LB antibody CD-18 (antibody, V domains shown) VH: DVQLQESGPDLVKPSQSLSLTCTVTGYSITSGYSWHWIRQFPDNKLEWMGYILSRGDTNFNPSLKSRISITRSTSNNQFFLHFNSVTTEDTATYYCARDFFDYWGQGTTLTVSS VL: DVLMTQTPLSLPVSLGDQASISCRSSQSIVHSNGNTYLEWYLQKPGQSPKLLIYKVSDRFSGVPDRFSGSGSGTDFTLKISRVEAEDLGVYFCFQGSHVPYTFGGGTKLEIK | 1290 | 6.6 |  |  | 
anti-CD300LB antibody CD-07 (antibody, V domains shown) VH: QVQLVQSGAEVKKPGASVKVSCKASGYTFTNYRMHWVRQAPGQGLEWMGWINPNSGGTIYAQKFQGRVTMTRDTSTSTVYMELSSLRSEDTAVYYCARDLDYWGQGTLVTVSS VL: DIQMTQSPSSLSASVGDRVTITCQASQDISNYLNWYQQKPGKAPKLLIYGASSLQSGVPSRFSGSGSGTDFTLTISSLQPEDFATYYCQQSYSTPWTFGPGTKVEIK |  |  | 3790 | 2700 | -189
anti-CD300LB antibody CD-05 (antibody, V domains shown) VH: QVQLVQSGAEVKKPGASVKVSCKASGYTFSRYYINWVRQAPGQGLEWMGWINPNSGGTNYAQKFQGRVTMTRDTSTSTVYMELSSLRSEDTAVYYCTTDQLRFGKTGPYYGMDVWGQGTTVTVSS VL: DIQMTQSPSSLSASVGDRVTITCRASQNIGTYLNWYQQKPGKAPKLLIYAASSLQSGVPSRFSGSGSGTDFTLTISSLQPEDFATYYCQQSYSDTLTFGGGTKVEIK |  |  | 68600 | 61000 | 166
anti-CD300LB antibody CD-06 (antibody, V domains shown) VH: QVQLVQSGAEVKKPGASVKVSCKASGYTFTTYAVHWVRQAPGQGLEWMGIVNPNSGGTNYAQKFQGRVTMTRDTSTSTVYMELSSLRSEDTAVYYCARDIVPMNNFYNYYYGMDVWGQGTTVTVSS VL: DIQMTQSPSSLSASVGDRVTITCRASQSISSYLNWYQQKPGKAPKLLIYATSTLQSGVPSRFSGSGSGTDFTLTISSLQPEDFATYYCQQSYRIPYTFGQGTKVEIK |  |  | 24000 | 26900 | 1010
anti-CD300LB antibody CD-10 (antibody, V domains shown) VH: QVQLQQSGPELVRPGVSVKISCKGSGYTFTDYAMHWVKQSHVRSREWIGVIGTYNGHTNYNQKFKGKATMTVDKSSSTAYLELARLTSEDSAIYYCARSGSYYYSMDYWGQGTSVTVSS VL: QIVLTQSPAIMSASPGEKVTMTCSASSSVNYMHWYQQKSGTSPKRWIYDTSKLSSGVPARFSGSGSGTSYSLTISTMEAEDAATYYCQQWSSNPPMTFGGGTKLEIK | 192 |  |  |  | 
